Where “and” joins values, the source holds several entries; their conditions need not be identical. Equal entries are not always repeated.

In the experiment the target is HRgpA-6H (Porphyromonas gingivalis) (UniProt P28784). The experiment can be described thus: ELISA, coated HRgpA-6H.
UniProt P28784, sequence (P28784 228-860 limits assumed): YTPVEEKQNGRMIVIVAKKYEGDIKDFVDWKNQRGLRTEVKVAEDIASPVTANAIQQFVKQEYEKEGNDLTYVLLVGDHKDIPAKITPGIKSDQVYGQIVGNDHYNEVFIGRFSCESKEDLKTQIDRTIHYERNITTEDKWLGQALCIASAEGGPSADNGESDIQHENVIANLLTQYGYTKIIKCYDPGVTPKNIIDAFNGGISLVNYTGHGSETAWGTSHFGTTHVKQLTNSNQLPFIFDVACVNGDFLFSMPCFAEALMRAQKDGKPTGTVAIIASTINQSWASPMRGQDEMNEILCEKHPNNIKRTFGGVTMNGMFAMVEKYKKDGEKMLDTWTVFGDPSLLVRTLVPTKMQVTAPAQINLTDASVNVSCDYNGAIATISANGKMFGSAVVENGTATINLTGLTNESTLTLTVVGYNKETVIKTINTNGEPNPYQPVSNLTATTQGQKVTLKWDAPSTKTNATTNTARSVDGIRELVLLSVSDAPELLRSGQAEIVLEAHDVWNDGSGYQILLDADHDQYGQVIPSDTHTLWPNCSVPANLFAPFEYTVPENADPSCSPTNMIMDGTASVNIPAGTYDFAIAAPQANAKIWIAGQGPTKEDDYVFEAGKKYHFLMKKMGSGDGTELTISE

B1: KB001 mouse Fab VH A62V (Fab, V domains shown)
VH: EVQLKQSGPGLVAPSQSLSITCTVSGFSLSIYSVHWVRQPPGKGLEWLGMIWGGGSSDYNSVLKSRLSISKDNSKSQVFLKMNSLQTDDTAMYYCARNGNFYAMDYWGQGTSVTVSS
VL: QIVLTQSPAIMSASLGERVTMTCTASSSVSSSFLHWYQQKPGSSPQLWIYSTSNLASGVPARFSGSGSGTSYSLTISSMEAEDAATYYCHQYHHSPYIYTFGGGTKLEIK
In the case of B1, the OD450 nm was 0.742 and 0.757; the Ratio OD(Variant)/OD(WT) is 0.849 and 0.866.

B2: KB001 mouse Fab VH A62D (Fab, V domains shown)
VH: EVQLKQSGPGLVAPSQSLSITCTVSGFSLSIYSVHWVRQPPGKGLEWLGMIWGGGSSDYNSDLKSRLSISKDNSKSQVFLKMNSLQTDDTAMYYCARNGNFYAMDYWGQGTSVTVSS
VL: QIVLTQSPAIMSASLGERVTMTCTASSSVSSSFLHWYQQKPGSSPQLWIYSTSNLASGVPARFSGSGSGTSYSLTISSMEAEDAATYYCHQYHHSPYIYTFGGGTKLEIK
As to B2, the OD450 nm was 0.853 and 0.851; the Ratio OD(Variant)/OD(WT) was 0.976 and 0.974.

B3: KB001 mouse Fab VH K64G (Fab, V domains shown)
VH: EVQLKQSGPGLVAPSQSLSITCTVSGFSLSIYSVHWVRQPPGKGLEWLGMIWGGGSSDYNSALGSRLSISKDNSKSQVFLKMNSLQTDDTAMYYCARNGNFYAMDYWGQGTSVTVSS
VL: QIVLTQSPAIMSASLGERVTMTCTASSSVSSSFLHWYQQKPGSSPQLWIYSTSNLASGVPARFSGSGSGTSYSLTISSMEAEDAATYYCHQYHHSPYIYTFGGGTKLEIK
B3: the OD450 nm stood at 0.806 and the Ratio OD(Variant)/OD(WT) was 0.975.

B4: KB001 mouse Fab VH K64V (Fab, V domains shown)
VH: EVQLKQSGPGLVAPSQSLSITCTVSGFSLSIYSVHWVRQPPGKGLEWLGMIWGGGSSDYNSALVSRLSISKDNSKSQVFLKMNSLQTDDTAMYYCARNGNFYAMDYWGQGTSVTVSS
VL: QIVLTQSPAIMSASLGERVTMTCTASSSVSSSFLHWYQQKPGSSPQLWIYSTSNLASGVPARFSGSGSGTSYSLTISSMEAEDAATYYCHQYHHSPYIYTFGGGTKLEIK
On to B4, for which the OD450 nm was 0.715 and 0.714; the Ratio OD(Variant)/OD(WT) was 0.865 and 0.863.

B5: KB001 mouse Fab VH L63Y (Fab, V domains shown)
VH: EVQLKQSGPGLVAPSQSLSITCTVSGFSLSIYSVHWVRQPPGKGLEWLGMIWGGGSSDYNSAYKSRLSISKDNSKSQVFLKMNSLQTDDTAMYYCARNGNFYAMDYWGQGTSVTVSS
VL: QIVLTQSPAIMSASLGERVTMTCTASSSVSSSFLHWYQQKPGSSPQLWIYSTSNLASGVPARFSGSGSGTSYSLTISSMEAEDAATYYCHQYHHSPYIYTFGGGTKLEIK
For B5, the OD450 nm is 0.836 and 0.846 and 0.801; the Ratio OD(Variant)/OD(WT) was 0.957 and 0.968 and 0.916.

B6: KB001 mouse Fab VH K64S (Fab, V domains shown)
VH: EVQLKQSGPGLVAPSQSLSITCTVSGFSLSIYSVHWVRQPPGKGLEWLGMIWGGGSSDYNSALSSRLSISKDNSKSQVFLKMNSLQTDDTAMYYCARNGNFYAMDYWGQGTSVTVSS
VL: QIVLTQSPAIMSASLGERVTMTCTASSSVSSSFLHWYQQKPGSSPQLWIYSTSNLASGVPARFSGSGSGTSYSLTISSMEAEDAATYYCHQYHHSPYIYTFGGGTKLEIK
Regarding B6, the OD450 nm worked out at 0.808 and the Ratio OD(Variant)/OD(WT) stood at 0.977.

B7: KB001 mouse Fab VH A62F (Fab, V domains shown)
VH: EVQLKQSGPGLVAPSQSLSITCTVSGFSLSIYSVHWVRQPPGKGLEWLGMIWGGGSSDYNSFLKSRLSISKDNSKSQVFLKMNSLQTDDTAMYYCARNGNFYAMDYWGQGTSVTVSS
VL: QIVLTQSPAIMSASLGERVTMTCTASSSVSSSFLHWYQQKPGSSPQLWIYSTSNLASGVPARFSGSGSGTSYSLTISSMEAEDAATYYCHQYHHSPYIYTFGGGTKLEIK
Consider B7, for which the OD450 nm was 0.843 and 0.733; the Ratio OD(Variant)/OD(WT) was 0.965 and 0.839.

B8: KB001 mouse Fab VH K64Y (Fab, V domains shown)
VH: EVQLKQSGPGLVAPSQSLSITCTVSGFSLSIYSVHWVRQPPGKGLEWLGMIWGGGSSDYNSALYSRLSISKDNSKSQVFLKMNSLQTDDTAMYYCARNGNFYAMDYWGQGTSVTVSS
VL: QIVLTQSPAIMSASLGERVTMTCTASSSVSSSFLHWYQQKPGSSPQLWIYSTSNLASGVPARFSGSGSGTSYSLTISSMEAEDAATYYCHQYHHSPYIYTFGGGTKLEIK
B8: the OD450 nm worked out at 0.763 and the Ratio OD(Variant)/OD(WT) was determined as 0.923.

B9: KB001 mouse Fab VH K64M (Fab, V domains shown)
VH: EVQLKQSGPGLVAPSQSLSITCTVSGFSLSIYSVHWVRQPPGKGLEWLGMIWGGGSSDYNSALMSRLSISKDNSKSQVFLKMNSLQTDDTAMYYCARNGNFYAMDYWGQGTSVTVSS
VL: QIVLTQSPAIMSASLGERVTMTCTASSSVSSSFLHWYQQKPGSSPQLWIYSTSNLASGVPARFSGSGSGTSYSLTISSMEAEDAATYYCHQYHHSPYIYTFGGGTKLEIK
In the case of B9, the OD450 nm was 0.799 and 0.757 and 0.78; the Ratio OD(Variant)/OD(WT) is 0.966 and 0.915 and 0.943.

B10: KB001 mouse Fab VH L63V (Fab, V domains shown)
VH: EVQLKQSGPGLVAPSQSLSITCTVSGFSLSIYSVHWVRQPPGKGLEWLGMIWGGGSSDYNSAVKSRLSISKDNSKSQVFLKMNSLQTDDTAMYYCARNGNFYAMDYWGQGTSVTVSS
VL: QIVLTQSPAIMSASLGERVTMTCTASSSVSSSFLHWYQQKPGSSPQLWIYSTSNLASGVPARFSGSGSGTSYSLTISSMEAEDAATYYCHQYHHSPYIYTFGGGTKLEIK
B10: the OD450 nm is 0.784 and 0.77 and 0.778; the Ratio OD(Variant)/OD(WT) was 0.897 and 0.881 and 0.89.

B11: KB001 mouse Fab VH L63M (Fab, V domains shown)
VH: EVQLKQSGPGLVAPSQSLSITCTVSGFSLSIYSVHWVRQPPGKGLEWLGMIWGGGSSDYNSAMKSRLSISKDNSKSQVFLKMNSLQTDDTAMYYCARNGNFYAMDYWGQGTSVTVSS
VL: QIVLTQSPAIMSASLGERVTMTCTASSSVSSSFLHWYQQKPGSSPQLWIYSTSNLASGVPARFSGSGSGTSYSLTISSMEAEDAATYYCHQYHHSPYIYTFGGGTKLEIK
Consider B11, for which the OD450 nm turned out to be 0.8 and the Ratio OD(Variant)/OD(WT) turned out to be 0.915.

B12: KB001 mouse Fab VH K64H (Fab, V domains shown)
VH: EVQLKQSGPGLVAPSQSLSITCTVSGFSLSIYSVHWVRQPPGKGLEWLGMIWGGGSSDYNSALHSRLSISKDNSKSQVFLKMNSLQTDDTAMYYCARNGNFYAMDYWGQGTSVTVSS
VL: QIVLTQSPAIMSASLGERVTMTCTASSSVSSSFLHWYQQKPGSSPQLWIYSTSNLASGVPARFSGSGSGTSYSLTISSMEAEDAATYYCHQYHHSPYIYTFGGGTKLEIK
On to B12, for which the OD450 nm is 0.752 and the Ratio OD(Variant)/OD(WT) was 0.909.

B13: KB001 mouse Fab VH A62R (Fab, V domains shown)
VH: EVQLKQSGPGLVAPSQSLSITCTVSGFSLSIYSVHWVRQPPGKGLEWLGMIWGGGSSDYNSRLKSRLSISKDNSKSQVFLKMNSLQTDDTAMYYCARNGNFYAMDYWGQGTSVTVSS
VL: QIVLTQSPAIMSASLGERVTMTCTASSSVSSSFLHWYQQKPGSSPQLWIYSTSNLASGVPARFSGSGSGTSYSLTISSMEAEDAATYYCHQYHHSPYIYTFGGGTKLEIK
B13: the OD450 nm is 0.733 and 0.847 and 0.809; the Ratio OD(Variant)/OD(WT) was 0.839 and 0.969 and 0.926.

B14: KB001 mouse Fab VH L63H (Fab, V domains shown)
VH: EVQLKQSGPGLVAPSQSLSITCTVSGFSLSIYSVHWVRQPPGKGLEWLGMIWGGGSSDYNSAHKSRLSISKDNSKSQVFLKMNSLQTDDTAMYYCARNGNFYAMDYWGQGTSVTVSS
VL: QIVLTQSPAIMSASLGERVTMTCTASSSVSSSFLHWYQQKPGSSPQLWIYSTSNLASGVPARFSGSGSGTSYSLTISSMEAEDAATYYCHQYHHSPYIYTFGGGTKLEIK
As for B14, the OD450 nm is 0.818 and 0.843 and 0.822; the Ratio OD(Variant)/OD(WT) is 0.936 and 0.965 and 0.941.

B15: KB001 mouse Fab VH A62E (Fab, V domains shown)
VH: EVQLKQSGPGLVAPSQSLSITCTVSGFSLSIYSVHWVRQPPGKGLEWLGMIWGGGSSDYNSELKSRLSISKDNSKSQVFLKMNSLQTDDTAMYYCARNGNFYAMDYWGQGTSVTVSS
VL: QIVLTQSPAIMSASLGERVTMTCTASSSVSSSFLHWYQQKPGSSPQLWIYSTSNLASGVPARFSGSGSGTSYSLTISSMEAEDAATYYCHQYHHSPYIYTFGGGTKLEIK
For B15, the OD450 nm amounted to 0.854 and the Ratio OD(Variant)/OD(WT) was 0.977.

B16: KB001 mouse Fab VH K64I (Fab, V domains shown)
VH: EVQLKQSGPGLVAPSQSLSITCTVSGFSLSIYSVHWVRQPPGKGLEWLGMIWGGGSSDYNSALISRLSISKDNSKSQVFLKMNSLQTDDTAMYYCARNGNFYAMDYWGQGTSVTVSS
VL: QIVLTQSPAIMSASLGERVTMTCTASSSVSSSFLHWYQQKPGSSPQLWIYSTSNLASGVPARFSGSGSGTSYSLTISSMEAEDAATYYCHQYHHSPYIYTFGGGTKLEIK
Regarding B16, the OD450 nm was 0.743 and 0.756 and 0.715; the Ratio OD(Variant)/OD(WT) was 0.898 and 0.914 and 0.865.

B17: KB001 mouse Fab VH L63F (Fab, V domains shown)
VH: EVQLKQSGPGLVAPSQSLSITCTVSGFSLSIYSVHWVRQPPGKGLEWLGMIWGGGSSDYNSAFKSRLSISKDNSKSQVFLKMNSLQTDDTAMYYCARNGNFYAMDYWGQGTSVTVSS
VL: QIVLTQSPAIMSASLGERVTMTCTASSSVSSSFLHWYQQKPGSSPQLWIYSTSNLASGVPARFSGSGSGTSYSLTISSMEAEDAATYYCHQYHHSPYIYTFGGGTKLEIK
B17: the OD450 nm was 0.743 and the Ratio OD(Variant)/OD(WT) came out at 0.85.

B18: KB001 mouse Fab VH A62L (Fab, V domains shown)
VH: EVQLKQSGPGLVAPSQSLSITCTVSGFSLSIYSVHWVRQPPGKGLEWLGMIWGGGSSDYNSLLKSRLSISKDNSKSQVFLKMNSLQTDDTAMYYCARNGNFYAMDYWGQGTSVTVSS
VL: QIVLTQSPAIMSASLGERVTMTCTASSSVSSSFLHWYQQKPGSSPQLWIYSTSNLASGVPARFSGSGSGTSYSLTISSMEAEDAATYYCHQYHHSPYIYTFGGGTKLEIK
Turning to B18, the OD450 nm turned out to be 0.812 and the Ratio OD(Variant)/OD(WT) was determined as 0.929.

B19: KB001 mouse Fab VH A62I (Fab, V domains shown)
VH: EVQLKQSGPGLVAPSQSLSITCTVSGFSLSIYSVHWVRQPPGKGLEWLGMIWGGGSSDYNSILKSRLSISKDNSKSQVFLKMNSLQTDDTAMYYCARNGNFYAMDYWGQGTSVTVSS
VL: QIVLTQSPAIMSASLGERVTMTCTASSSVSSSFLHWYQQKPGSSPQLWIYSTSNLASGVPARFSGSGSGTSYSLTISSMEAEDAATYYCHQYHHSPYIYTFGGGTKLEIK
With B19, the OD450 nm was 0.702 and 0.808; the Ratio OD(Variant)/OD(WT) was 0.803 and 0.924.
